Measured values published in patent US20150299285A1.
Read-outs that look alike come from different tables or passages of the source.

Tests used:
[1] = target: insulin receptor subtype B (human) (UniProt P06213); experiment: cell-based or functional assay
[2] = target: insulin receptor subtype A (human) (UniProt P06213); experiment: cell-based or functional assay
[3] = target: insulin receptor subtype A (human) (UniProt P06213); experiment: IR-A Binding, competition with 125I-insulin
[4] = target: insulin receptor subtype B (human) (UniProt P06213); experiment: cell-based or functional assay; remark: listed apart in the source
[5] = target: insulin receptor subtype A (human) (UniProt P06213); experiment: cell-based or functional assay; remark: listed apart in the source

native IGF-1 (from UniProt P05019 49-118) (ligand)
EC50, Receptor Phosphorylation [1]: 16.6 nM
EC50, phosphorylation (FIG. 18B) [1]: 32.4 nM
IC50 (so named in p-1063), Phosphorylation at Insulin Receptor Subtype B [1]: 19.7 nM
EC50, IR-A Phosphorylation [2]: 29.2 nM
EC50, Receptor Phosphorylation [2]: 10 nM
EC50, phosphorylation (FIG. 18A) [2]: 2.24 nM
IC50 (so named in p-1063), Phosphorylation at Insulin Receptor Subtype A [2]: 146 nM
IC50 [3]: 18.8 nM
EC50, Receptor Phosphorylation [4]: 32.2 nM
EC50, Receptor Phosphorylation [5]: 6.48 nM
